In general, EC50 refers to the concentration at which the effect is half-maximal. Higher therefore signals weaker potency.

*1 amine or outer side, *2 acyl side, *3 side chain or, on linkers, in order; H or OH if unused. Where no end group is shown, it is not given here. Side-chain parts run from the residue outwards. [ ]: non-standard residue; d: D form. The star is where a group is joined. ThP = 4-amino-tetrahydro-2H-pyran-4-yl-acetic acid, O=C(CC1(N[*:1])CCOCC1)[*:2]; C18 diacid = O=C(O)CCCCCCCCCCCCCCCCC(=O)*; C16 diacid = O=C(O)CCCCCCCCCCCCCCC(=O)*; γGlu = O=C(O)[C@H](CCC(=O)[*:2])N[*:1]; NMeI = CC[C@H](C)[C@H](NC)C(=O)O; Ac6c = NC1(C(=O)O)CCCCC1; Ac5c = NC1(C(=O)O)CCCC1 Some results are limits rather than exact numbers.

In assay [1] the target is T1, CRF1R receptor (UniProt P34998 24-415, limits assumed).
T1 sequence (looked up): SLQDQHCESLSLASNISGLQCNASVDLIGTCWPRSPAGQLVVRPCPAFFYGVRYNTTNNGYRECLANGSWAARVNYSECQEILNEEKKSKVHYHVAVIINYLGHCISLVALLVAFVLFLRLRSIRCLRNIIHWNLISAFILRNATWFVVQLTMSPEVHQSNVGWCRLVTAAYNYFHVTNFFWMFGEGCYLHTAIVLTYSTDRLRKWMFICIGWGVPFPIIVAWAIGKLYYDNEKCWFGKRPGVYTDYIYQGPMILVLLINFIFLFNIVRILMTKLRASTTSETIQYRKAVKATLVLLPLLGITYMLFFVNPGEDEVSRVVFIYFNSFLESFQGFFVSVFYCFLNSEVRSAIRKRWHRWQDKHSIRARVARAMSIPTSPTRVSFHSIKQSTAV
Briefly: cell-based or functional assay.

Assay [2] addresses human corticotropin-releasing factor 2a (CRF2a receptor) (human), Q13324. Briefly: cell-based or functional assay.

Chain of human corticotropin-releasing factor 2a (CRF2a receptor) (human), Q13324 (Q13324 20-411): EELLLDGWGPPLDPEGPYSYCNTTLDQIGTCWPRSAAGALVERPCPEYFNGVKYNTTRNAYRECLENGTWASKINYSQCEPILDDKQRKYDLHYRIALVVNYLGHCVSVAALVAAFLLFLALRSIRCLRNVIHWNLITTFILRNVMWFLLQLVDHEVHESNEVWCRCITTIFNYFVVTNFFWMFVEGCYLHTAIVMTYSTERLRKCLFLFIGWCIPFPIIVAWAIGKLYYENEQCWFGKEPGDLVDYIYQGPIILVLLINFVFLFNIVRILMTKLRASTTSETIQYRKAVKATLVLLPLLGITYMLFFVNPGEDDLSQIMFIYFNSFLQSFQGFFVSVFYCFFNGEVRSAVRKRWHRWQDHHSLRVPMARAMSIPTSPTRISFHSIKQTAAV

B1: SEQ ID NO 135 (peptide)
peptide: Ac-IVLSLD[dV]PIKLK([γGlu-C18 diacid])KILLEQEKQKKQREQAETN[Ac5c]QILAQV-NH2
SMILES: CC[C@H](C)[C@H](NC(C)=O)C(=O)N[C@H](C(=O)N[C@@H](CC(C)C)C(=O)N[C@@H](CO)C(=O)N[C@@H](CC(C)C)C(=O)N[C@@H](CC(=O)O)C(=O)N[C@@H](C(=O)N1CCC[C@H]1C(=O)N[C@H](C(=O)N[C@@H](CCCCN)C(=O)N[C@@H](CC(C)C)C(=O)N[C@@H](CCCCNC(=O)CC[C@H](NC(=O)CCCCCCCCCCCCCCCCC(=O)O)C(=O)O)C(=O)N[C@@H](CCCCN)C(=O)N[C@H](C(=O)N[C@@H](CC(C)C)C(=O)N[C@@H](CC(C)C)C(=O)N[C@@H](CCC(=O)O)C(=O)N[C@@H](CCC(N)=O)C(=O)N[C@@H](CCC(=O)O)C(=O)N[C@@H](CCCCN)C(=O)N[C@@H](CCC(N)=O)C(=O)N[C@@H](CCCCN)C(=O)N[C@@H](CCCCN)C(=O)N[C@@H](CCC(N)=O)C(=O)N[C@@H](CCCNC(=N)N)C(=O)N[C@@H](CCC(=O)O)C(=O)N[C@@H](CCC(N)=O)C(=O)N[C@@H](C)C(=O)N[C@@H](CCC(=O)O)C(=O)N[C@H](C(=O)N[C@@H](CC(N)=O)C(=O)NC1(C(=O)N[C@@H](CCC(N)=O)C(=O)N[C@H](C(=O)N[C@@H](CC(C)C)C(=O)N[C@@H](C)C(=O)N[C@@H](CCC(N)=O)C(=O)N[C@H](C(N)=O)C(C)C)[C@@H](C)CC)CCCC1)[C@@H](C)O)[C@@H](C)CC)[C@@H](C)CC)C(C)C)C(C)C
With B1, in assay [1], the “Emax (% I)” value came to 15%. The same molecule registered an EC50 [nM] (cAMP) in assay [2] of 0.19 nM.

B2: SEQ ID NO 134 (peptide)
peptide: Ac-IVLSLD[dV]PIKLK([γGlu-C18 diacid])KILLEQEKQKKQREQAETN[Ac6c]QILAQV-NH2
SMILES: CC[C@H](C)[C@H](NC(C)=O)C(=O)N[C@H](C(=O)N[C@@H](CC(C)C)C(=O)N[C@@H](CO)C(=O)N[C@@H](CC(C)C)C(=O)N[C@@H](CC(=O)O)C(=O)N[C@@H](C(=O)N1CCC[C@H]1C(=O)N[C@H](C(=O)N[C@@H](CCCCN)C(=O)N[C@@H](CC(C)C)C(=O)N[C@@H](CCCCNC(=O)CC[C@H](NC(=O)CCCCCCCCCCCCCCCCC(=O)O)C(=O)O)C(=O)N[C@@H](CCCCN)C(=O)N[C@H](C(=O)N[C@@H](CC(C)C)C(=O)N[C@@H](CC(C)C)C(=O)N[C@@H](CCC(=O)O)C(=O)N[C@@H](CCC(N)=O)C(=O)N[C@@H](CCC(=O)O)C(=O)N[C@@H](CCCCN)C(=O)N[C@@H](CCC(N)=O)C(=O)N[C@@H](CCCCN)C(=O)N[C@@H](CCCCN)C(=O)N[C@@H](CCC(N)=O)C(=O)N[C@@H](CCCNC(=N)N)C(=O)N[C@@H](CCC(=O)O)C(=O)N[C@@H](CCC(N)=O)C(=O)N[C@@H](C)C(=O)N[C@@H](CCC(=O)O)C(=O)N[C@H](C(=O)N[C@@H](CC(N)=O)C(=O)NC1(C(=O)N[C@@H](CCC(N)=O)C(=O)N[C@H](C(=O)N[C@@H](CC(C)C)C(=O)N[C@@H](C)C(=O)N[C@@H](CCC(N)=O)C(=O)N[C@H](C(N)=O)C(C)C)[C@@H](C)CC)CCCCC1)[C@@H](C)O)[C@@H](C)CC)[C@@H](C)CC)C(C)C)C(C)C
Turning to B2, in assay [1], the “Emax (% I)” value stood at 10%. The EC50 [nM] (cAMP) in assay [2] was found to be 0.5 nM.

B3: SEQ ID NO 60 (peptide)
peptide: Ac-IVLSLD[dV]PIKLK([γGlu-C16 diacid])KILLEQEKQKKQREQAETN[Ac5c]QILAQV-NH2
SMILES: CC[C@H](C)[C@H](NC(C)=O)C(=O)N[C@H](C(=O)N[C@@H](CC(C)C)C(=O)N[C@@H](CO)C(=O)N[C@@H](CC(C)C)C(=O)N[C@@H](CC(=O)O)C(=O)N[C@@H](C(=O)N1CCC[C@H]1C(=O)N[C@H](C(=O)N[C@@H](CCCCN)C(=O)N[C@@H](CC(C)C)C(=O)N[C@@H](CCCCNC(=O)CC[C@H](NC(=O)CCCCCCCCCCCCCCC(=O)O)C(=O)O)C(=O)N[C@@H](CCCCN)C(=O)N[C@H](C(=O)N[C@@H](CC(C)C)C(=O)N[C@@H](CC(C)C)C(=O)N[C@@H](CCC(=O)O)C(=O)N[C@@H](CCC(N)=O)C(=O)N[C@@H](CCC(=O)O)C(=O)N[C@@H](CCCCN)C(=O)N[C@@H](CCC(N)=O)C(=O)N[C@@H](CCCCN)C(=O)N[C@@H](CCCCN)C(=O)N[C@@H](CCC(N)=O)C(=O)N[C@@H](CCCNC(=N)N)C(=O)N[C@@H](CCC(=O)O)C(=O)N[C@@H](CCC(N)=O)C(=O)N[C@@H](C)C(=O)N[C@@H](CCC(=O)O)C(=O)N[C@H](C(=O)N[C@@H](CC(N)=O)C(=O)NC1(C(=O)N[C@@H](CCC(N)=O)C(=O)N[C@H](C(=O)N[C@@H](CC(C)C)C(=O)N[C@@H](C)C(=O)N[C@@H](CCC(N)=O)C(=O)N[C@H](C(N)=O)C(C)C)[C@@H](C)CC)CCCC1)[C@@H](C)O)[C@@H](C)CC)[C@@H](C)CC)C(C)C)C(C)C
Regarding B3, in assay [1], the “Emax (% I)” value stood at 5%. This molecule also yielded an EC50 [nM] (cAMP) in assay [2] of 0.34 nM.

B4: SEQ ID NO 59 (peptide)
peptide: Ac-IVLSLD[dV]PIKLK([γGlu-C16 diacid])KILLEQEKQKKQREQAETN[Ac6c]QILAQV-NH2
SMILES: CC[C@H](C)[C@H](NC(C)=O)C(=O)N[C@H](C(=O)N[C@@H](CC(C)C)C(=O)N[C@@H](CO)C(=O)N[C@@H](CC(C)C)C(=O)N[C@@H](CC(=O)O)C(=O)N[C@@H](C(=O)N1CCC[C@H]1C(=O)N[C@H](C(=O)N[C@@H](CCCCN)C(=O)N[C@@H](CC(C)C)C(=O)N[C@@H](CCCCNC(=O)CC[C@H](NC(=O)CCCCCCCCCCCCCCC(=O)O)C(=O)O)C(=O)N[C@@H](CCCCN)C(=O)N[C@H](C(=O)N[C@@H](CC(C)C)C(=O)N[C@@H](CC(C)C)C(=O)N[C@@H](CCC(=O)O)C(=O)N[C@@H](CCC(N)=O)C(=O)N[C@@H](CCC(=O)O)C(=O)N[C@@H](CCCCN)C(=O)N[C@@H](CCC(N)=O)C(=O)N[C@@H](CCCCN)C(=O)N[C@@H](CCCCN)C(=O)N[C@@H](CCC(N)=O)C(=O)N[C@@H](CCCNC(=N)N)C(=O)N[C@@H](CCC(=O)O)C(=O)N[C@@H](CCC(N)=O)C(=O)N[C@@H](C)C(=O)N[C@@H](CCC(=O)O)C(=O)N[C@H](C(=O)N[C@@H](CC(N)=O)C(=O)NC1(C(=O)N[C@@H](CCC(N)=O)C(=O)N[C@H](C(=O)N[C@@H](CC(C)C)C(=O)N[C@@H](C)C(=O)N[C@@H](CCC(N)=O)C(=O)N[C@H](C(N)=O)C(C)C)[C@@H](C)CC)CCCCC1)[C@@H](C)O)[C@@H](C)CC)[C@@H](C)CC)C(C)C)C(C)C
For the molecule B4, in assay [1], the “Emax (% I)” value was 9%. Also, in assay [2], the EC50 [nM] (cAMP) is 0.81 nM.

B5: SEQ ID NO 142 (peptide)
peptide: [NMeI]VLSLD[dV]PIKLK([γGlu-C18 diacid])KILLEQEKQKKQREQAETNEQILAQV-NH2
modifications: N-terminus assumed
SMILES: CC[C@H](C)[C@H](NC)C(=O)N[C@H](C(=O)N[C@@H](CC(C)C)C(=O)N[C@@H](CO)C(=O)N[C@@H](CC(C)C)C(=O)N[C@@H](CC(=O)O)C(=O)N[C@@H](C(=O)N1CCC[C@H]1C(=O)N[C@H](C(=O)N[C@@H](CCCCN)C(=O)N[C@@H](CC(C)C)C(=O)N[C@@H](CCCCNC(=O)CC[C@H](NC(=O)CCCCCCCCCCCCCCCCC(=O)O)C(=O)O)C(=O)N[C@@H](CCCCN)C(=O)N[C@H](C(=O)N[C@@H](CC(C)C)C(=O)N[C@@H](CC(C)C)C(=O)N[C@@H](CCC(=O)O)C(=O)N[C@@H](CCC(N)=O)C(=O)N[C@@H](CCC(=O)O)C(=O)N[C@@H](CCCCN)C(=O)N[C@@H](CCC(N)=O)C(=O)N[C@@H](CCCCN)C(=O)N[C@@H](CCCCN)C(=O)N[C@@H](CCC(N)=O)C(=O)N[C@@H](CCCNC(=N)N)C(=O)N[C@@H](CCC(=O)O)C(=O)N[C@@H](CCC(N)=O)C(=O)N[C@@H](C)C(=O)N[C@@H](CCC(=O)O)C(=O)N[C@H](C(=O)N[C@@H](CC(N)=O)C(=O)N[C@@H](CCC(=O)O)C(=O)N[C@@H](CCC(N)=O)C(=O)N[C@H](C(=O)N[C@@H](CC(C)C)C(=O)N[C@@H](C)C(=O)N[C@@H](CCC(N)=O)C(=O)N[C@H](C(N)=O)C(C)C)[C@@H](C)CC)[C@@H](C)O)[C@@H](C)CC)[C@@H](C)CC)C(C)C)C(C)C
In the case of B5, the “Emax (% I)” value in assay [1] is 3%. Further, the EC50 [nM] (cAMP) in assay [2] was determined as 0.07 nM.

B6: SEQ ID NO 133 (peptide)
peptide: Ac-IVLSLD[dV]PIKLK([γGlu-C18 diacid])KILLEQEKQKKQREQAETN[ThP]QILAQV-NH2
SMILES: CC[C@H](C)[C@H](NC(C)=O)C(=O)N[C@H](C(=O)N[C@@H](CC(C)C)C(=O)N[C@@H](CO)C(=O)N[C@@H](CC(C)C)C(=O)N[C@@H](CC(=O)O)C(=O)N[C@@H](C(=O)N1CCC[C@H]1C(=O)N[C@H](C(=O)N[C@@H](CCCCN)C(=O)N[C@@H](CC(C)C)C(=O)N[C@@H](CCCCNC(=O)CC[C@H](NC(=O)CCCCCCCCCCCCCCCCC(=O)O)C(=O)O)C(=O)N[C@@H](CCCCN)C(=O)N[C@H](C(=O)N[C@@H](CC(C)C)C(=O)N[C@@H](CC(C)C)C(=O)N[C@@H](CCC(=O)O)C(=O)N[C@@H](CCC(N)=O)C(=O)N[C@@H](CCC(=O)O)C(=O)N[C@@H](CCCCN)C(=O)N[C@@H](CCC(N)=O)C(=O)N[C@@H](CCCCN)C(=O)N[C@@H](CCCCN)C(=O)N[C@@H](CCC(N)=O)C(=O)N[C@@H](CCCNC(=N)N)C(=O)N[C@@H](CCC(=O)O)C(=O)N[C@@H](CCC(N)=O)C(=O)N[C@@H](C)C(=O)N[C@@H](CCC(=O)O)C(=O)N[C@H](C(=O)N[C@@H](CC(N)=O)C(=O)NC1(CC(=O)N[C@@H](CCC(N)=O)C(=O)N[C@H](C(=O)N[C@@H](CC(C)C)C(=O)N[C@@H](C)C(=O)N[C@@H](CCC(N)=O)C(=O)N[C@H](C(N)=O)C(C)C)[C@@H](C)CC)CCOCC1)[C@@H](C)O)[C@@H](C)CC)[C@@H](C)CC)C(C)C)C(C)C
Consider B6, for which, in assay [1], the “EC50” value is over 250 nM and the “Emax (% I)” value came to 11%. This molecule gave an EC50 [nM] (cAMP) in assay [2] of 0.16 nM.

The values above are taken from patent US20260001928A1 (CORTERIA PHARMACEUTICALS, priority 2022, published 2026).
